7 molecules from ChEMBL document CHEMBL1152109, “Synthesis and biological evaluation of a new series of dihydrofolate reductase inhibitors based on the 4-(2,6-diamino-5-pyrimidinyl)alkyl-L-glutamic acid structure” (Bioorg Med Chem Lett, 1996) can be followed below.

Data set [1] can be described thus: Ratio of Vmax/Km was evaluated.
Data set [2] deals with T1, Thymidylate synthase (Homo sapiens, UniProt P04818). Description: Binding affinity against Recombinant human thymidylate synthase (TS).
Data set [3] can be described thus: Binding affinity against human monofunctional glycinamide ribonucleotide formyl transferase (GARFT).
Another data set has as its target T2, Dihydrofolate reductase (Homo sapiens, UniProt P00374).
T2 sequence (P00374 whole entry): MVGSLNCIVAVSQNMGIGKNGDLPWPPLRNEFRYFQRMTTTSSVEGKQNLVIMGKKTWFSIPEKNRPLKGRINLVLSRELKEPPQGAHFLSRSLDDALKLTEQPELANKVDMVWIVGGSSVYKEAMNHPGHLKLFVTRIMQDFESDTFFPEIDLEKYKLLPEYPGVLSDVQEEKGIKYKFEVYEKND
Description: Binding affinity against Recombinant human dihydrofolate reductase (DHFR).

Data set [4] is described as follows: Binding affinity against human monofunctional glycinamide ribonucleotide formyl transferase (GARFT).
Data set [5] has as its target T1, Thymidylate synthase. The experiment in a line: Binding affinity against Recombinant human thymidylate synthase (TS).
Substrate in data set [6]: Nc1ncc(CCCCc2ccc(C(=O)N[C@@H](CCC(=O)O)C(=O)O)cc2)c(N)n1
Description: (§1) Substrate activity against folyl-poly-glutamate synthetase isolated from hog liver. The following applies: Sus scrofa.

Substrate in data set [7]: Nc1ncc(CCCc2ccc(C(=O)N[C@@H](CCC(=O)O)C(=O)O)cc2)c(N)n1
The data set is described as §1. As to conditions: Sus scrofa.

Substrate in data set [8]: CN(Cc1cnc2nc(N)nc(N)c2n1)c1ccc(C(=O)N[C@@H](CCC(=O)O)C(=O)O)cc1
The description is as §1. The following applies: Sus scrofa.

Substrate in data set [9]: Nc1nc2[nH]cc(CCc3ccc(C(=O)N[C@@H](CCC(=O)O)C(=O)O)cc3)c2c(=O)[nH]1
Described as §1. The following applies: Sus scrofa.

Substrate in data set [10]: Nc1nc2c(c(=O)[nH]1)C[C@@H](CCc1ccc(C(=O)N[C@@H](CCC(=O)O)C(=O)O)cc1)CN2
The data set is described as §1. The following applies: Sus scrofa.

Substrate in data set [11]: CCC(Cc1cnc2nc(N)nc(N)c2n1)c1ccc(C(=O)N[C@@H](CCC(=O)O)C(=O)O)cc1
The experiment in a line: Substrate activity against folyl-poly-glutamate synthetase (FPGS) (isolated from hog liver). The following applies: Sus scrofa.

T1 sequence (P04818 whole entry): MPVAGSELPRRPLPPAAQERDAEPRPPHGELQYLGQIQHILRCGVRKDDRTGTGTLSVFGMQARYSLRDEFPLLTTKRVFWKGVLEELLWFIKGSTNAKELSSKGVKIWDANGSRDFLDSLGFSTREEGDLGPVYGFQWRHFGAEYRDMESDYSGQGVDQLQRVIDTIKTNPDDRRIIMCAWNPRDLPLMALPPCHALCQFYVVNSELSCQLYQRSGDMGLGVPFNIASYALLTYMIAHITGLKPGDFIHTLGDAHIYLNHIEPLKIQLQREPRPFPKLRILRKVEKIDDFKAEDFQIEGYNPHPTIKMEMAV

Take `CN(Cc1cnc2nc(N)nc(N)c2n1)c1ccc(C(=O)N[C@@H](CCC(=O)O)C(=O)O)cc1`: the Ratio in [1] was 4.3.

Regarding `CCC(Cc1cnc2nc(N)nc(N)c2n1)c1ccc(C(=O)N[C@@H](CCC(=O)O)C(=O)O)cc1` (stereo partly drawn), the Ratio in [1] worked out at 19.

`Nc1ncc(CCCCc2ccc(C(=O)N[C@@H](CCC(=O)O)C(=O)O)cc2)c(N)n1`: the inhibition constant (Ki) at Thymidylate synthase [2] was > 5 µM; in data set [3] it was 62 µM; on Dihydrofolate reductase, 0.005 nM. Further, the Ratio in [1] came out at 34.

In the case of `Nc1ncc(CCCc2ccc(C(=O)N[C@@H](CCC(=O)O)C(=O)O)cc2)c(N)n1`, the Ki is 54.3 µM in data set [4], 0.12 nM on Dihydrofolate reductase and > 5 µM at Thymidylate synthase [5].

As for `Nc1nc2c(c(=O)[nH]1)CC(CCc1ccc(C(=O)N[C@@H](CCC(=O)O)C(=O)O)cc1)CN2` (single isomer, unassigned), the Ratio in [1] was found to be 60.

In the case of `Nc1nc2[nH]cc(CCc3ccc(C(=O)N[C@@H](CCC(=O)O)C(=O)O)cc3)c2c(=O)[nH]1`, the Ratio in data set [1] came out at 381.

B1: Folylpolyglutamate synthase, mitochondrial (Homo sapiens), Q05932 (protein)
chain: MSRARSHLRAALFLAAASARGITTQVAARRGLSAWPVPQEPSMEYQDAVRMLNTLQTNAGYLEQVKRQRGDPQTQLEAMELYLARSGLQVEDLDRLNIIHVTGTKGKGSTCAFTECILRSYGLKTGFFSSPHLVQVRERIRINGQPISPELFTKYFWRLYHRLEETKDGSCVSMPPYFRFLTLMAFHVFLQEKVDLAVVEVGIGGAYDCTNIIRKPVVCGVSSLGIDHTSLLGDTVEKIAWQKGGIFKQGVPAFTVLQPEGPLAVLRDRAQQISCPLYLCPMLEALEEGGPPLTLGLEGEHQRSNAALALQLAHCWLQRQDRHGAGEPKASRPGLLWQLPLAPVFQPTSHMRLGLRNTEWPGRTQVLRRGPLTWYLDGAHTASSAQACVRWFRQALQGRERPSGGPEVRVLLFNATGDRDPAALLKLLQPCQFDYAVFCPNLTEVSSTGNADQQNFTVTLDQVLLRCLEHQQHWNHLDEEQASPDLWSAPSPEPGGSASLLLAPHPPHTCSASSLVFSCISHALQWISQGRDPIFQPPSPPKGLLTHPVAHSGASILREAAAIHVLVTGSLHLVGGVLKLLEPALSQ
Regarding B1, the Michaelis-Menten constant (Km) in data set [6] was 20 µM; in [7], 5.1 µM; in [8], 116 µM; in data set [9], 1.9 µM; in data set [10] it was 16.4 µM; in [11] it was 13.3 µM. Besides, the Vmax was found to be 685 nM/h/mg in data set [6]; 758 nM/h/mg in [7]; 498 nM/h/mg in [8]; 725 nM/h/mg in data set [9]; 977 nM/h/mg in data set [10]; 258 nM/h/mg in data set [11].

A word on the Ki: it is the equilibrium dissociation constant of an inhibitor or competing ligand from its target. A word on the Km: it is the substrate concentration at which the rate is half of its maximum. The term Vmax denotes the rate approached at saturating substrate.
